As a reminder, the Km is the substrate concentration at which the rate is half of its maximum. The term kcat denotes the maximal rate divided by the concentration of active sites. In general, kcat/Km refers to the second-order rate constant that governs catalysis at low substrate concentration.

Results on 3 proteins are retold here after publication PMC5352738, “Characterization of three pyranose dehydrogenase isoforms from the litter-decomposing basidiomycete Leucoagaricus meleagris (syn. Agaricus meleagris)” (Applied Microbiology and Biotechnology, 2016).

Substrate in series [1]: CO[C@H]1O[C@H](CO)[C@@H](O)[C@H](O)[C@H]1O
Kind of series: purified protein. The conditions noted are these: electron donor, 0.2 mM ferrocenium, 50 mM Na phosphate pH 7.5, 30 °C. It counts as biochemical, Macropsalliota meleagris.

Substrate in series [2]: O=C1C=CC(=O)C=C1
The series can be described thus: purified protein. It counts as biochemical, Macropsalliota meleagris. The conditions noted are these: electron acceptor, 25 mM D-glucose, 100 mM Na acetate pH 4.0, 30 °C.

B1: AmPDH2 (Macropsalliota meleagris) (protein)
chain: AITYQHPDDLPSGVDYDFIVAGGGTAGLVVASRLSENSKWNVLVIEAGPSNKDTPETRIPGLADNLPGTRTDWNYTTIPQDALGGRSLNYSRAKVLGGCSTHNGMVYTRGPRDDWNYWAEITDNQALKWDNVLPIMKNTEKFSQDFLDQSMEGHIDPSVHGFDGMLSVVASYTNVSFNNLLLETTRELSDEFPFKLDLNDGKPHGLAWTQYTIDQGAERSSSATSYLESTGDNVHVLVNTHVTRIVSAGNETDFRSVEFAVDANSPKKVLTAKKELILSAGVIASPQILMNSGIGGREELQAIGVDTLIDNPSVGRNLSDQASTLLMFDTTLPNTDYDVAAALTEWDNSRSGPMAYAARLNHLTWVRLPDDKLSGSDPSSGHDSPHIEFQFRQISHQLPPADVPNQVQLPDPDSIGVVLQFSVVNLYSISLGSVTLNNNDPFADPIIDLNMFGDQKDIAILREGVRSARRMFSSQAFKNVVHETVYPPAGVTSDEDLDAFLRTSAVSYLHGVGTLSMSPHSASWGVVNPDFRVKGTTGLRVVDASVIPRAPAGHTQIPVYTFAEHASALIADSYN
notes: full-length pdh2 (600 aa precursor) in pPICZB-His6, His6-tag kept, secreted from Pichia pastoris X33; N-glycosylated, ~65 kDa deglycosylated; covalent FAD
On to B1, for which, in series [1], the Km came to 2000 ± 60 µM, the turnover number (kcat) worked out at 85 ± 0.6 s⁻¹ and the specificity constant (kcat/Km) was 42500 M⁻¹ s⁻¹. Moreover, in series [2], the Michaelis constant (Km) came to 32.5 ± 1.9 µM, the kcat stood at 23.4 ± 0.5 s⁻¹ and the kcat/Km came out at 780000 M⁻¹ s⁻¹.

B2: AmPDH3 (Macropsalliota meleagris) (protein)
chain: AITYQHPDDLPSDVDYDFIVAGGGTAGLVVASRLSENPDWNILVIEAGPSNKDAPETRVPGLAGSLPASRTDWNYTTIPQDALGGRSLNYSRAKVLGGCSSHNSMVYTRGSKDDWNHWADITGDQGLSWDSILPVMKKAEKFSKDFSNQSVDGHIDPSMHGHDGLLSVVSSYTNVSFNDLLLETTKELSDEFPFKLDLNDGNPHGLAWTQYTIDHRAERSSSATSYLESTRDNVHVLVNSRVTRIFSAGNGTDFRSVEFAVDANSPKKVLTAKKEVILSAGVIASPQVLMNSGIGGREELQAIGVDTLIDNPSVGKNLSDQAATLLMFDTTLPNTDYDVAAALTEWEDSRSGPMAYGARLNHLTWVRLLDDKLNGSDPSSGKNSPHIEFQFMQISHQLPPADAPNQVKLPDPDSIGAVLLLAVVNLYSVSHGSIILNDNDPFANPMIDLNMFGDQKDIAILREGVRSARRMFSSQAFKDVVNGTVYPPADVTSDEDLDAFLRTSAISYWHGVGTLSMSPQNASWGVVDPDFRVKGTSGLRVVDASVIPYAPAGHTQVPVYTFAEHASVLIAKSYA
notes: full-length pdh3 (600 aa precursor) in pPICZB-His6, His6-tag kept, secreted from Pichia pastoris X33; strongly N-glycosylated, ~65 kDa deglycosylated; standard yellow form with covalent FAD
On to B2, for which, in series [1], the Michaelis-Menten constant (Km) came to 950 ± 60 µM, the kcat was 1 ± 0.01 s⁻¹ and the kcat/Km was determined as 1050 M⁻¹ s⁻¹. Also, in series [2], the Michaelis-Menten constant (Km) was determined as 1880 ± 140 µM, the turnover number (kcat) is 3.57 ± 0.11 s⁻¹ and the kcat/Km amounted to 1890 M⁻¹ s⁻¹.

B3: AmPDH1 (Macropsalliota meleagris) (protein)
chain: AITYQHPDDLPSGVDYDFIVAGGGTAGLVVASRLSENSNWKVLVIEAGPSNKDAFVTRVPGLASTLGAGSPIDWNYTTIPQDGLDGRSLDYPRAKILGGCSTHNGMVYTRGSKDDWNSWAGIIGDQGLGWDSILPAIKKAEKFTQDFTDQSVKGHIDPSVHGFDGKLSVSAAYSNISFNDLLFETTKELNAEFPFKLDMNDGKPIGLGWTQYTIDNHAERSSSATSYLESTGDNVHVLVNTLVTRVLSASGNGTDFRKVEFAVDANSPKKQLEAKKEVIVAGGVIASPQILMNSGIGERKVLQAVGIDTLIDNPSVGKNLSDQGATSVMFDTTLPSTDFDVDAALTEWTNSHTGPLARGARLNHLTFVRLPDDKLNGQDPSSGKNSPHIEFQFAQITPQVPTLGVPKQAPLPAANSYRLLLQLAVVNLYSISRGSISLSDNNPFTYPLIDLNMFKEDIDIAILREGIRSAGRMFSSKAFKNSVNKFVYPPADATSDEDLDAFLRSSTFSYVHGVGTLSMSPKGASWGVVNPDFKVKGTSGLRVVDASVIPHAPAAHTQLPVYAFAEYASALIAKSYN
notes: full-length pdh1 (602 aa precursor) in pPICZB-His6, His6-tag kept, secreted from Pichia pastoris X33; N-glycosylated monomer, ~65 kDa deglycosylated; covalent FAD
For B3, in series [1], the Km was determined as 660 ± 50 µM, the kcat amounted to 41.5 ± 0.8 s⁻¹ and the kcat/Km amounted to 62900 M⁻¹ s⁻¹.
